Starred links: 1 amine or outer side, 2 acyl side, 3 side chain; linkers in the order of their positions; H or OH if unused. Non-standard residues stand in square brackets, D forms with d. Groups on a side chain read outwards from the residue. No end group written: not given here. *: point of attachment. C20 diacid = O=C(O)CCCCCCCCCCCCCCCCCCC(=O)*; γGlu = O=C(O)[C@H](CCC(=O)[*:2])N[*:1]; αMeF = C[C@](N)(Cc1ccccc1)C(=O)O; AEEA = NCCOCCOCC(=O)O; Aib = CC(C)(N)C(=O)O
Tests used:
[1] = biological target: human GLP-1 receptor (human, UniProt P43220); assay: cell-based or functional assay
[2] = biological target: human glucagon receptor (human, UniProt P47871); assay: cell-based or functional assay

Binder	cAMP production EC50 [1]	cAMP production EC50 [2]
H[Aib]QGTFTSDVSK[αMeF]LESK([AEEA-AEEA-γGlu-C20 diacid])RAQDFVRWLLE[Aib]K-OH (N-terminus assumed; SMILES CC(C)C[C@H](NC(=O)[C@H](Cc1c[nH]c2ccccc12)NC(=O)[C@H](CCCNC(=N)N)NC(=O)[C@@H](NC(=O)[C@H](Cc1ccccc1)NC(=O)[C@H](CC(=O)O)NC(=O)[C@H](CCC(N)=O)NC(=O)[C@H](C)NC(=O)[C@H](CCCNC(=N)N)NC(=O)[C@H](CCCCNC(=O)COCCOCCNC(=O)COCCOCCNC(=O)CC[C@H](NC(=O)CCCCCCCCCCCCCCCCCCC(=O)O)C(=O)O)NC(=O)[C@H](CO)NC(=O)[C@H](CCC(=O)O)NC(=O)[C@H](CC(C)C)NC(=O)[C@](C)(Cc1ccccc1)NC(=O)[C@H](CCCCN)NC(=O)[C@H](CO)NC(=O)[C@@H](NC(=O)[C@H](CC(=O)O)NC(=O)[C@H](CO)NC(=O)[C@@H](NC(=O)[C@H](Cc1ccccc1)NC(=O)[C@@H](NC(=O)CNC(=O)[C@H](CCC(N)=O)NC(=O)C(C)(C)NC(=O)[C@@H](N)Cc1c[nH]cn1)[C@@H](C)O)[C@@H](C)O)C(C)C)C(C)C)C(=O)N[C@@H](CC(C)C)C(=O)N[C@@H](CCC(=O)O)C(=O)NC(C)(C)C(=O)N[C@@H](CCCCN)C(=O)O) [Peptide 504]	124 pM	551 pM
H[Aib]QGTFTSDVSK[αMeF]LESK([AEEA-AEEA-γGlu-C20 diacid])RAQDFVRWLVE[Aib]G-NH2 (N-terminus assumed; SMILES CC(C)C[C@H](NC(=O)[C@H](Cc1c[nH]c2ccccc12)NC(=O)[C@H](CCCNC(=N)N)NC(=O)[C@@H](NC(=O)[C@H](Cc1ccccc1)NC(=O)[C@H](CC(=O)O)NC(=O)[C@H](CCC(N)=O)NC(=O)[C@H](C)NC(=O)[C@H](CCCNC(=N)N)NC(=O)[C@H](CCCCNC(=O)COCCOCCNC(=O)COCCOCCNC(=O)CC[C@H](NC(=O)CCCCCCCCCCCCCCCCCCC(=O)O)C(=O)O)NC(=O)[C@H](CO)NC(=O)[C@H](CCC(=O)O)NC(=O)[C@H](CC(C)C)NC(=O)[C@](C)(Cc1ccccc1)NC(=O)[C@H](CCCCN)NC(=O)[C@H](CO)NC(=O)[C@@H](NC(=O)[C@H](CC(=O)O)NC(=O)[C@H](CO)NC(=O)[C@@H](NC(=O)[C@H](Cc1ccccc1)NC(=O)[C@@H](NC(=O)CNC(=O)[C@H](CCC(N)=O)NC(=O)C(C)(C)NC(=O)[C@@H](N)Cc1c[nH]cn1)[C@@H](C)O)[C@@H](C)O)C(C)C)C(C)C)C(=O)N[C@H](C(=O)N[C@@H](CCC(=O)O)C(=O)NC(C)(C)C(=O)NCC(N)=O)C(C)C) [Peptide 508]	67.9 pM	2800 pM
H[Aib]QGTFTSDVSK[αMeF]LDTK([AEEA-AEEA-γGlu-C20 diacid])RAQDFVQWLLE[Aib]K-NH2 (N-terminus assumed; SMILES CC(C)C[C@H](NC(=O)[C@H](Cc1c[nH]c2ccccc12)NC(=O)[C@H](CCC(N)=O)NC(=O)[C@@H](NC(=O)[C@H](Cc1ccccc1)NC(=O)[C@H](CC(=O)O)NC(=O)[C@H](CCC(N)=O)NC(=O)[C@H](C)NC(=O)[C@H](CCCNC(=N)N)NC(=O)[C@H](CCCCNC(=O)COCCOCCNC(=O)COCCOCCNC(=O)CC[C@H](NC(=O)CCCCCCCCCCCCCCCCCCC(=O)O)C(=O)O)NC(=O)[C@@H](NC(=O)[C@H](CC(=O)O)NC(=O)[C@H](CC(C)C)NC(=O)[C@](C)(Cc1ccccc1)NC(=O)[C@H](CCCCN)NC(=O)[C@H](CO)NC(=O)[C@@H](NC(=O)[C@H](CC(=O)O)NC(=O)[C@H](CO)NC(=O)[C@@H](NC(=O)[C@H](Cc1ccccc1)NC(=O)[C@@H](NC(=O)CNC(=O)[C@H](CCC(N)=O)NC(=O)C(C)(C)NC(=O)[C@@H](N)Cc1c[nH]cn1)[C@@H](C)O)[C@@H](C)O)C(C)C)[C@@H](C)O)C(C)C)C(=O)N[C@@H](CC(C)C)C(=O)N[C@@H](CCC(=O)O)C(=O)NC(C)(C)C(=O)N[C@@H](CCCCN)C(N)=O) [Peptide 505]	42.1 pM	191 pM
H[Aib]QGTFTSDVSK[αMeF]LDTK([AEEA-AEEA-γGlu-C20 diacid])RARDFVAWLLE[Aib]G-NH2 [Peptide 507]	52.9 pM	86.6 pM
H[Aib]QGTFTSDVSK[αMeF]LESK([AEEA-AEEA-γGlu-C20 diacid])RAQDFVRWLL[Aib]TE-OH (N-terminus assumed; SMILES CC(C)C[C@H](NC(=O)[C@H](Cc1c[nH]c2ccccc12)NC(=O)[C@H](CCCNC(=N)N)NC(=O)[C@@H](NC(=O)[C@H](Cc1ccccc1)NC(=O)[C@H](CC(=O)O)NC(=O)[C@H](CCC(N)=O)NC(=O)[C@H](C)NC(=O)[C@H](CCCNC(=N)N)NC(=O)[C@H](CCCCNC(=O)COCCOCCNC(=O)COCCOCCNC(=O)CC[C@H](NC(=O)CCCCCCCCCCCCCCCCCCC(=O)O)C(=O)O)NC(=O)[C@H](CO)NC(=O)[C@H](CCC(=O)O)NC(=O)[C@H](CC(C)C)NC(=O)[C@](C)(Cc1ccccc1)NC(=O)[C@H](CCCCN)NC(=O)[C@H](CO)NC(=O)[C@@H](NC(=O)[C@H](CC(=O)O)NC(=O)[C@H](CO)NC(=O)[C@@H](NC(=O)[C@H](Cc1ccccc1)NC(=O)[C@@H](NC(=O)CNC(=O)[C@H](CCC(N)=O)NC(=O)C(C)(C)NC(=O)[C@@H](N)Cc1c[nH]cn1)[C@@H](C)O)[C@@H](C)O)C(C)C)C(C)C)C(=O)N[C@@H](CC(C)C)C(=O)NC(C)(C)C(=O)N[C@H](C(=O)N[C@@H](CCC(=O)O)C(=O)O)[C@@H](C)O) [Peptide 509]	594 pM	3020 pM
H[Aib]QGTFTSDVSK[αMeF]LDTK([AEEA-AEEA-γGlu-C20 diacid])RARDFVAWLLE[Aib]G-OH (N-terminus assumed; SMILES CC(C)C[C@H](NC(=O)[C@H](Cc1c[nH]c2ccccc12)NC(=O)[C@H](C)NC(=O)[C@@H](NC(=O)[C@H](Cc1ccccc1)NC(=O)[C@H](CC(=O)O)NC(=O)[C@H](CCCNC(=N)N)NC(=O)[C@H](C)NC(=O)[C@H](CCCNC(=N)N)NC(=O)[C@H](CCCCNC(=O)COCCOCCNC(=O)COCCOCCNC(=O)CC[C@H](NC(=O)CCCCCCCCCCCCCCCCCCC(=O)O)C(=O)O)NC(=O)[C@@H](NC(=O)[C@H](CC(=O)O)NC(=O)[C@H](CC(C)C)NC(=O)[C@](C)(Cc1ccccc1)NC(=O)[C@H](CCCCN)NC(=O)[C@H](CO)NC(=O)[C@@H](NC(=O)[C@H](CC(=O)O)NC(=O)[C@H](CO)NC(=O)[C@@H](NC(=O)[C@H](Cc1ccccc1)NC(=O)[C@@H](NC(=O)CNC(=O)[C@H](CCC(N)=O)NC(=O)C(C)(C)NC(=O)[C@@H](N)Cc1c[nH]cn1)[C@@H](C)O)[C@@H](C)O)C(C)C)[C@@H](C)O)C(C)C)C(=O)N[C@@H](CC(C)C)C(=O)N[C@@H](CCC(=O)O)C(=O)NC(C)(C)C(=O)NCC(=O)O) [Peptide 506]	162 pM	149 pM

Source: patent US12630600B2 (MEDIMMUNE LIMITED, priority 2022, dated 2026)
